Measurements taken from patent US20150045291A1 (YEDA RESEARCH AND DEVELOPMENT, published 2015).

Legend:
Experiment in all cases: cell-based or functional assay
[1] = molecular target: T1, HIV-1 HXB2 envelope protein (ENV), gp41 transmembrane subunit (HIV-1 HXB2, UniProt P04578 33-856)
[2] = molecular target: HIV-1 LAI ENV (CXCR4 tropic) (HIV-1 LAI, UniProt P03377 33-861)
[3] = molecular target: HIV-1 AD8 ENV (CCR5 tropic) (HIV-1 AD8)
[4] = molecular target: T1, HIV-1 HXB2 envelope protein (ENV), gp41 …; remark: listed apart in the source

Row | Binder | IC50 (nM), antiviral activity in a fully infectious HIV-1 system [1] [nM] | also measured
1 | YTSLIHSLIEESQNQQEKNK (sphinganine on the side chain of the C-terminal Lys) [DP19K-sphinganine] | 350 | 
2 | LLQLTVWGIKQLQARIL (sphinganine (dihydrosphingosine) on the N-terminus) [Sphinganine-N17] | 121 | IC50, infection of TZM-bl cells by pseudotyped virus [2]: 312 nM; IC50, infection of TZM-bl cells by pseudotyped virus [3]: 403 nM
3 | LLQLTVWGIKQLQARILK (sphinganine on the N-terminus) [Sphinganine-N17K] | 118 | inhibitory concentration at 50% infectivity (IC50) [4]: 116 nM
4 | ELQLTQWKIKQLLARILK [N17mut (e, g) K] | > 4000 | 
5 | ELQLTQWKIKQLLARILK (sphinganine on the side chain of the C-terminal Lys) [N17mut (e, g) K-sphing] | 120 | 
6 | LLQLTVWGIKQLQA (sphinganine on the N-terminus) [Sphing-N14] | 500 | 
7 | LQARILAVERYLKDQQL (sphinganine on the N-terminus) [Sphinganine-ShN17] | 886 | 
8 | ELQLTQWKIKQLLARILK (sphinganine on the N-terminus) [Sphing-N17mut (e, g) K] | 120 | 
9 | LLQLTVWGIKQLQA [N14] | > 4000 | 
10 | LLQLTVWGIKQLQARILK (sphinganine on the side chain of the C-terminal Lys) [N17K-sphinganine] | 291 | IC50 value, viral infectivity [4]: 287 nM
11 | LLQLTVWGIKQLQARIL (palmitic acid (C16) on the N-terminus) [Palmitic acid-N17] | > 4000 | 
12 | LLQLTVWGIKQLQARIL (cholesterol on the N-terminus) [Cholesterol-N17] | > 4000 | 
13 | LLQLTVWGIKQLQARIL (sphingosine on the N-terminus) [Sphingosine-N17] | 208 | 
14 | LLQLTVWGIKQLQARIL (tocopherol (alpha-tocopherol succinate) on the N-terminus) [Tocopherol-N17] | > 4000 | 
15 | YTSLIHSLIEESQNQQEKNK [DP19K] | 2210 | 
16 | LLQLTVWGIKQLQARIL [N17] | > 4000 | 
17 | LLQLTVWGIKQLQARILK [N17K] | > 4000 | 
